# doi:10.1101/2021.10.20.465124v1
# Substrate: COc1cc2ccc(=O)oc2cc1O[C@@H]1O[C@H](CO)[C@@H](O)[C@H](O)[C@H]1O
# Test: glucose release, D-Glucose HK assay, substrate inhibition fit
# Assay type: biochemical, Streptomyces scabiei
# Conditions: HEPES 50 mM pH 7.5, 40 °C, 4 min, substrate inhibition model
protein,measurement,value
His6-BglC (Streptomyces scabiei 87.22) (protein) MPEPVNPATPVTFPPAFLWGAATSAYQIEGAVREDGRTPSIWDTFSHTPGKTAGGENGDIAVDHYHRYRDDVAMMADLGLNAYRFSVSWSRVQPTGRGPAVQKGLDFYRRLVDELLAKGIKPAVTLYHWDLPQELEDAGGWPERDIVHRFAEYARIMGEALGDRVEQWITLNEPWCTAFLGYGSGVHAPGRTDPVASLRAAHHLNVAHGLGVSALRSAMPARNSIAVSLNSSVVRPITSSPEDRAAARKIDDLANGVFHGPMLHGAYPETLFAATSSLTDWSFVRDGDVATAHQPLDALGLNYYTPALVGAADAGLEGPRADGHGASEHSPWPAADDVLFHQTPGERTEMGWTIDPTGLHELIMRYAREAPGLPMYVTENGAAYDDKMDADGRVHDPERIAYLHGHLRAVRRAIAEGADVRGYYLWSLMDNFEWAYGYGKRFGAVYVDYATLTRTPKSSAHWYGQAAKTGALPPLAPAPA,Km,300 µM
same,kcat,9.4 s⁻¹
